Biological target: Recombinant His-tagged SF2/ASF (rSF2/ASF) (UniProt Q07955)
Sequence (Q07955 whole entry): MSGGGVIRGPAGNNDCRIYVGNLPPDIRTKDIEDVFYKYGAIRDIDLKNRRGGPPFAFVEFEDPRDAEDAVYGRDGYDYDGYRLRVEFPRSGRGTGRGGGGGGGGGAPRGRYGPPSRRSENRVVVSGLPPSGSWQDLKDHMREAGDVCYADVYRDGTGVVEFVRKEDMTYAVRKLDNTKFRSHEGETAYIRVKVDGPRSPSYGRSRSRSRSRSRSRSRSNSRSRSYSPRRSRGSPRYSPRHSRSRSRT

Glutathione S-transferase-tagged mClk1/Sty (recombinant Clk1/Sty), sequence (chain, as listed by the source): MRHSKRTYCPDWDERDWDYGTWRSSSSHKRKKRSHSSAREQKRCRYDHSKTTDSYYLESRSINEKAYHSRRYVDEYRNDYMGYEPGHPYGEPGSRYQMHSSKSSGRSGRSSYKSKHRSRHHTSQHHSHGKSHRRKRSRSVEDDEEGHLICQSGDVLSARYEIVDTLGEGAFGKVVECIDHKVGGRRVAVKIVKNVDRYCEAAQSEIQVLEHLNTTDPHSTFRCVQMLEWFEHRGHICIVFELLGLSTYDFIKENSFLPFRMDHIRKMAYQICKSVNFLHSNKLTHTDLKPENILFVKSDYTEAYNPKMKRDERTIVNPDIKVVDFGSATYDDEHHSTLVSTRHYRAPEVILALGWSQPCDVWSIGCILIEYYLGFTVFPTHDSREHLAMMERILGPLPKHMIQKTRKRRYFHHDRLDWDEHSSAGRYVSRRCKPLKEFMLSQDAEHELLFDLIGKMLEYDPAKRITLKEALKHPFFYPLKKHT

Substance: Glutathione S-transferase-tagged mClk1/Sty (recombinant Clk1/Sty)
- electrophoretic mobility of rSF2/ASF on SDS-PAGE / Western blot with AK103 (phosphorylation state): rSF2/ASF exhibited reduced electrophoretic mobility in the presence of Clk 1/Sty (FIG. 2A, lane 2) compared with the rSF2/ASF alone

— US20050171026
